According to paper PMC7801428 (Nature Communications, 2021):

Biological target: SARS-CoV-2 RBD (residues V320 to G550, strain Wuhan-Hu-1), C-terminal His tag (SARS-CoV-2, UniProt P0DTC2)
Experiment: BLI
Settings: both partners purified

B1: human-mouse chimeric antibody 3C1 (c3C1) (antibody, V domains shown)
VH: EVQLQESGPSLVKPSQTLSLTCSVTGDSITNGYWNWIRKFPGNKLEYMGYISYSGSTYYSPSLKSRISITRDTSKNQHYLQLNSVTSEDTATYYCASDYHGSKYYFDYWGQGTTLTVSS
VL: DIVMTQSHKFMSTSVGHRVSITCKASQDVGNDVAWYQQKPGQSPKLLIYWASTRHTGVPDRFTGSGSGTDFTLTISNVQSEDLADYFCQQYNRYPYTFGGGTKLEIK
notes: also called chimeric MAb c3C1
Kd: < 1 pM
